This note sets out measurements from patent US20240141072A1 (published 2024).

Test [1] concerns the target T1, anti-DLL3 trispecific protein with DLL3 binding sequence 51X5.
T1 construct: trispecific, one chain
The experiment in a line: Octet BLI; biotinylated purified CHO trispecific on streptavidin tips; 60, 20, 6.67, 2.22 nM.

Test [2] concerns the target T2, anti-DLL3 trispecific protein with DLL3 binding domain 51G02.
T2 construct: trispecific, one chain; also called 51G2
Described as above.

Test [3] has as its target T3, anti-DLL3 trispecific protein with DLL3 binding domain 51A05.
T3 construct: trispecific, one chain; also called 51A5
The test is described as above.

Test [4] concerns the target T4, anti-DLL3 trispecific protein containing the parental DLL3 binder DH6.
T4 construct: trispecific, one chain
Described as above.

Test [5] deals with T5, anti-DLL3 trispecific protein with DLL3 binding domain 51H05.
T5 construct: trispecific, one chain; also called 51H5
Described as above.

In test [6] the target is T6, anti-DLL3 trispecific protein with DLL3 binding domain 52D04.
T6 construct: trispecific, one chain; same domain order as the TAC protein m79; also called 52D4
The test is described as above.

In test [7] the target is T7, anti-DLL3 trispecific protein with DLL3 binding domain 51F03.
T7 construct: trispecific, one chain; also called 51F3
The test is described as above.

Test [8] concerns the target T8, anti-DLL3 trispecific protein with DLL3 binding domain 52B01.
T8 construct: trispecific, one chain; also called 52B1
Described as above.

In test [9] the target is T9, anti-DLL3 trispecific protein with DLL3 binding domain 52C04.
T9 construct: trispecific, one chain; also called 52C4
The description is as above.

Test [10] deals with T10, anti-DLL3 trispecific protein with DLL3 binding domain 51G10.
T10 construct: trispecific, one chain
The description is as above.

The target of test [11] is DH29 anti-DLL3 trispecific protein. The experiment in a line: Octet BLI, DLL3-Fc on anti-human Fc tips, single 50 nM. The protocol:
(§1) Using conditioned media containing known concentrations of anti-DLL3 trispecific proteins, the binding affinities of the anti-DLL3 trispecific proteins toward human and cynomolgus monkey DLL3 proteins were measured, using a method where the DLL3 proteins were expressed as human IgG1-Fc fusions and the measurements were carried out using an Octet instrument with anti-human Fc tips.
Background: Biolayer interferometry detects binding as a change in optical thickness at a sensor tip.

In test [12] the target is DH58 anti-DLL3 trispecific protein. The test is described as above. How it is done: as §1
For test [13], the target named is DH92 anti-DLL3 trispecific protein. Described as above. How it is done: as §1
Test [14] concerns the target DH12 anti-DLL3 trispecific protein. The test is described as above. The protocol:
as §1

For test [15], the target named is DH42 anti-DLL3 trispecific protein. Described as above. The protocol:
as §1

The target of test [16] is DH23 anti-DLL3 trispecific protein. The description is as above. The protocol: as §1
The target in test [17] is DH89 anti-DLL3 trispecific protein. The description is as above. How it is done: as §1
Test [18] has as its target DH6 anti-DLL3 trispecific protein. The description is as above. The protocol: as §1
The target in test [19] is DH61 anti-DLL3 trispecific protein. The test is described as above. How it is done:
as §1

The target of test [20] is DH51 anti-DLL3 trispecific protein. Described as above. The protocol:
as §1

Test [21] has as its target DH2 anti-DLL3 trispecific protein. Described as above. How it is done: as §1
Test [22] deals with DH3 anti-DLL3 trispecific protein. The test is described as above. How it is done:
as §1

Test [23] has as its target DH1 anti-DLL3 trispecific protein. The test is described as above. How it is done:
as §1

The target in test [24] is DH83 anti-DLL3 trispecific protein. The description is as above. How it is done: as §1
The target in test [25] is DH70 anti-DLL3 trispecific protein. The description is as above. How it is done:
as §1

Test [26] has as its target DH22 anti-DLL3 trispecific protein. Described as above. The protocol:
as §1

Test [27] addresses DH18 anti-DLL3 trispecific protein. The test is described as above. The protocol:
as §1

The target of test [28] is DH84 anti-DLL3 trispecific protein. The test is described as above. How it is done:
as §1

Test [29] concerns the target DH11 anti-DLL3 trispecific protein. Described as above. The protocol: as §1
In test [30] the target is DH54 anti-DLL3 trispecific protein. The description is as above. The protocol:
as §1

Test [31] deals with DH69 anti-DLL3 trispecific protein. Described as above. The protocol:
as §1

In test [32] the target is DH80 anti-DLL3 trispecific protein. Described as above. The protocol:
as §1

The target of test [33] is DH67 anti-DLL3 trispecific protein. The description is as above. How it is done: as §1
The target in test [34] is DH5 anti-DLL3 trispecific protein. The test is described as above. The protocol:
as §1

The target in test [35] is DH10 anti-DLL3 trispecific protein. The description is as above. How it is done:
as §1

Test [36] deals with DH56 anti-DLL3 trispecific protein. The description is as above. The protocol:
as §1

Test [37] addresses DH82 anti-DLL3 trispecific protein. Described as above. The protocol: as §1
The target in test [38] is DH94 anti-DLL3 trispecific protein. Described as above. The protocol: as §1
In test [39] the target is DH27 anti-DLL3 trispecific protein. The test is described as above. How it is done:
as §1

Test [40] addresses DH17 anti-DLL3 trispecific protein. The test is described as above. How it is done: as §1
Test [41] deals with DH43 anti-DLL3 trispecific protein. Described as above. The protocol:
as §1

Test [42] concerns the target DH38 anti-DLL3 trispecific protein. The description is as above. How it is done: as §1
The target in test [43] is DH15 anti-DLL3 trispecific protein. The description is as above. The protocol:
as §1

Test [44] has as its target DH45 anti-DLL3 trispecific protein. The test is described as above. How it is done:
as §1

T3 sequence (chain, as listed by the source): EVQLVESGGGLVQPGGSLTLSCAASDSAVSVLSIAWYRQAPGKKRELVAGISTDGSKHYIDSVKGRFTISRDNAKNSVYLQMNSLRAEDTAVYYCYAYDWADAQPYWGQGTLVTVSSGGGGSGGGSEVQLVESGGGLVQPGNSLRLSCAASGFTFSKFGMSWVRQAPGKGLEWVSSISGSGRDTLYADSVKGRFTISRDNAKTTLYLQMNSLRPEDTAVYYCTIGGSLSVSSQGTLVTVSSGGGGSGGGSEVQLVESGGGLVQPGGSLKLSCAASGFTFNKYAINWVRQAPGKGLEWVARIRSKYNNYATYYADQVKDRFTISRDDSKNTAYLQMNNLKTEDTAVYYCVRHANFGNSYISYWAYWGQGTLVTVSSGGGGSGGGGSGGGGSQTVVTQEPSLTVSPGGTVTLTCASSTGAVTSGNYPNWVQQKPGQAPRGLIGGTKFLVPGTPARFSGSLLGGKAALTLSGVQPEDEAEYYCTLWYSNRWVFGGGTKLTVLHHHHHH
T5 sequence (chain, as listed by the source): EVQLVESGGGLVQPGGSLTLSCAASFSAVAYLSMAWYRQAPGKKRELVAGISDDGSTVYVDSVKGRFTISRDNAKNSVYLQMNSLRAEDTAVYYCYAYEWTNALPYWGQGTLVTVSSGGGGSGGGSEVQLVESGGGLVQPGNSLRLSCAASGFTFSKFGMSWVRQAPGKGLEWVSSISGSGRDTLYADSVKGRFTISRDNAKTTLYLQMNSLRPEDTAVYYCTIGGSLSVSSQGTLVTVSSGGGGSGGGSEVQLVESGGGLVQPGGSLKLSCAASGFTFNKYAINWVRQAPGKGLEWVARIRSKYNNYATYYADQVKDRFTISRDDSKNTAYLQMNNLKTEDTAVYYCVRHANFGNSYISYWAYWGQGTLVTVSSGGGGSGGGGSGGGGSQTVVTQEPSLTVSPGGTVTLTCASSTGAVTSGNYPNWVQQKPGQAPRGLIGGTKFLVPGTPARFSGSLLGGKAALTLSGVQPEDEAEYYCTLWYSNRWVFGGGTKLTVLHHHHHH
T1 sequence (chain, as listed by the source): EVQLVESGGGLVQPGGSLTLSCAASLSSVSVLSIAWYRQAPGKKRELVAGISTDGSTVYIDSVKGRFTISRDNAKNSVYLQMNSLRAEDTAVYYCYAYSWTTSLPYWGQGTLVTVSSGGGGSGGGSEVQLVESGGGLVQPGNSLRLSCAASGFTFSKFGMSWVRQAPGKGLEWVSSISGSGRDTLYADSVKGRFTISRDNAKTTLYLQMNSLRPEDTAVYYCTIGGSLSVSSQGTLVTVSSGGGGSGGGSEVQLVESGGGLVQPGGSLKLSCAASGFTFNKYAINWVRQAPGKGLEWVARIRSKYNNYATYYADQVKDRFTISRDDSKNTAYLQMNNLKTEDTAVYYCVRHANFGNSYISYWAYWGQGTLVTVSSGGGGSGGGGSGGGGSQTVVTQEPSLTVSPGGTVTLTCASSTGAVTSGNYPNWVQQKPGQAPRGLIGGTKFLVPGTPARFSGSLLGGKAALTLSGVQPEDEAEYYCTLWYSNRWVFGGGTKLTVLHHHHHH
T4 sequence (chain, as listed by the source): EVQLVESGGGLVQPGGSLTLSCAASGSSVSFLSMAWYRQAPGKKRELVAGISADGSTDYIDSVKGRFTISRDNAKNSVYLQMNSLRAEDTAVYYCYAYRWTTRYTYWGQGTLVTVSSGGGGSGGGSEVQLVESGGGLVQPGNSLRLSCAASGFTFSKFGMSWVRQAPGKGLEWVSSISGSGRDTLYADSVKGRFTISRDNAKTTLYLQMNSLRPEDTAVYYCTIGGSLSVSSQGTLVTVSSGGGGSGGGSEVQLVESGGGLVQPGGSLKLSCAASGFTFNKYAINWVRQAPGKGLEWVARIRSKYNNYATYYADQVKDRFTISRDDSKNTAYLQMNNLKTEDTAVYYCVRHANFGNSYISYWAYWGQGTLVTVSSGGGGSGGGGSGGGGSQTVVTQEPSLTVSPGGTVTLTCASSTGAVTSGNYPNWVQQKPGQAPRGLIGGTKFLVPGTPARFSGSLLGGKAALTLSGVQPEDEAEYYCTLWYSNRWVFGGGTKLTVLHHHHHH
Sequence of DH58 anti-DLL3 trispecific protein (chain, as listed by the source): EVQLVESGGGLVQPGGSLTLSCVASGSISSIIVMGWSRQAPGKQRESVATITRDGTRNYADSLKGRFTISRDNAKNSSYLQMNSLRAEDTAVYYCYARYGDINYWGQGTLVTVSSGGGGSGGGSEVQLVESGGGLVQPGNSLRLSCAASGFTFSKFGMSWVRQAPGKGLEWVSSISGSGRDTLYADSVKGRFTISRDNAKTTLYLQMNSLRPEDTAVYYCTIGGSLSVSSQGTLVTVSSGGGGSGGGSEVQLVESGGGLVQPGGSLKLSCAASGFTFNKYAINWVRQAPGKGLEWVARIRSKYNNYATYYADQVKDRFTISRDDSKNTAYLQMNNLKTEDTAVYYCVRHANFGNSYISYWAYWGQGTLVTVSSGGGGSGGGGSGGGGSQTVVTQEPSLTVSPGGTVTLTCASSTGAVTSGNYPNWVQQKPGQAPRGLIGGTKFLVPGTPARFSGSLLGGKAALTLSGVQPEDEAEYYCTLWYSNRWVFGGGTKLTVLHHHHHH
Sequence of DH15 anti-DLL3 trispecific protein (chain, as listed by the source): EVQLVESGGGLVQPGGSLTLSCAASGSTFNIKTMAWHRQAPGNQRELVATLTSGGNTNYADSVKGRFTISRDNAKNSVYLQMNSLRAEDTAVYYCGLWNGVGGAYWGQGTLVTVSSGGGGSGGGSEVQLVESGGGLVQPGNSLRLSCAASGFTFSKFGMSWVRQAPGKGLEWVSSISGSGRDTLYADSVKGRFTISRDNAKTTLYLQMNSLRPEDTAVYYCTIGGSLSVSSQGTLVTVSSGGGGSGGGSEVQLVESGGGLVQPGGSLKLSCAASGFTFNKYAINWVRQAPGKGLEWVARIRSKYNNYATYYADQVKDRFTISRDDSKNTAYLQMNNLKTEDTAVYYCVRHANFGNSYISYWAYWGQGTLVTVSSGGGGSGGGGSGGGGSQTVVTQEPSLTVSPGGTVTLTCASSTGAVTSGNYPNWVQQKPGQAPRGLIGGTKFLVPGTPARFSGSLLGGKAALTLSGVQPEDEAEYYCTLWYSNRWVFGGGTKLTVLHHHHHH
T9 sequence (chain, as listed by the source): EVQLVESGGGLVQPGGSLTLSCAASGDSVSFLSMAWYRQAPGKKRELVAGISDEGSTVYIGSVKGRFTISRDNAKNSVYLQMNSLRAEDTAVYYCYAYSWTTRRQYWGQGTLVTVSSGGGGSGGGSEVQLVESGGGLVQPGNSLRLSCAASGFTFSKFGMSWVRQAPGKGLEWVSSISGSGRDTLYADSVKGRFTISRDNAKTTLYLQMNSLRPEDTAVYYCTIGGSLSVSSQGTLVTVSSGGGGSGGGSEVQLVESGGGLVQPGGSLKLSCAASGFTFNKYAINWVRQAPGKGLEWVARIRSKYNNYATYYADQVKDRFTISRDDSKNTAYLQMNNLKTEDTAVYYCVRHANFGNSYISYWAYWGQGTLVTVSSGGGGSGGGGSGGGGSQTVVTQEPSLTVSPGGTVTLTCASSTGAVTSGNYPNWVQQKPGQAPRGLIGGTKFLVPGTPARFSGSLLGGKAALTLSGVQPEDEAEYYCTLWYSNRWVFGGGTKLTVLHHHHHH
Sequence of DH70 anti-DLL3 trispecific protein (chain, as listed by the source): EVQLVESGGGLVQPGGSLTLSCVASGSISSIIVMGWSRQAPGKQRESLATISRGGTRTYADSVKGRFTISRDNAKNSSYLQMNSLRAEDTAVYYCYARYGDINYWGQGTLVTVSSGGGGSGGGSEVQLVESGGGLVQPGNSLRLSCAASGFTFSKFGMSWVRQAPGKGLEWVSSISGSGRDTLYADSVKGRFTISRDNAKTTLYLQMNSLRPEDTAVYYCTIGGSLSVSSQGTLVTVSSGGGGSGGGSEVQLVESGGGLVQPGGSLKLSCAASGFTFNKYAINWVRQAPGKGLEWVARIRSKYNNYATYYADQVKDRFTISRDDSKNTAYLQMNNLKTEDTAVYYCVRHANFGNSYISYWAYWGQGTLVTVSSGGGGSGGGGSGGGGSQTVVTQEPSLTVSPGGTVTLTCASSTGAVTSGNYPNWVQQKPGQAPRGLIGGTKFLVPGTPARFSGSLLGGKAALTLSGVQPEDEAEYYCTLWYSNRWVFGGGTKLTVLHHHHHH

B1: human DLL3 protein (Example 6) (ligand)
chain: AGVFELQIHSFGPGPGPGAPRSPCSARLPCRLFFRVCLKPGLSEEAAESPCALGAALSARGPVYTEQPGAPAPDLPLPDGLLQVPFRDAWPGTFSFIIETWREELGDQIGGPAWSLLARVAGRRRLAAGGPWARDIQRAGAWELRFSYRARCEPPAVGTACTRLCRPRSAPSRCGPGLRPCAPLEDECEAPLVCRAGCSPEHGFCEQPGECRCLEGWTGPLCTVPVSTSSCLSPRGPSSATTGCLVPGPGPCDGNPCANGGSCSETPRSFECTCPRGFYGLRCEVSGVTCADGPCFNGGLCVGGADPDSAYICHCPPGFQGSNCEKRVDRCSLQPCRNGGLCLDLGHALRCRCRAGFAGPRCEHDLDDCAGRACANGGTCVEGGGAHRCSCALGFGGRDCRERADPCAARPCAHGGRCYAHFSGLVCACAPGYMGARCEFPVHPDGASALPAAPPGLRPGDPQRYL
notes: also called huDLL3
Turning to B1, the Kd – broadly, the equilibrium constant for the complex coming apart – was determined as 1 nM in test [1]; 2 nM in test [2]; 1.2 nM in test [3]; 13.5 nM in test [4]; 0.9 nM in [5]; 0.9 nM in test [6]. In addition, the Kd stood at 1.4 nM in test [7], 1.1 nM in [8], 2.2 nM in test [9] and 0.9 nM in test [10].

B2: cynomolgus monkey DLL3 protein expressed as human IgG1-Fc fusion (Fc fusion, Macaca fascicularis)
chain: AGVFELQIHSFGPGPGGAPRSPYSARGPCRLFFRVCLKPGLSEEAAESPCALGAALSARGPVYTEQPEAPAPDLPLPNGLLQVPFRDAWPGTFSLIIETWREELGDQIGGPAWSLLARVTRRRRLAAGGPWAGDIQRAGAWELRFSYRARCELPAVGTACTRLCRPRSASRCGPGLRPCAPLEDECEAPPVCRAGCSLEHGFCEQPGECRCLEGWTGPLCMVPVSTSSCLGLRGPSSTTTGCLVPGPGPCDGNPCANGGSCSETPGSFECTCPRGFYGLRCEVSGVTCADGPCFNGGLCVGGADPDSAYICHCPPGFQGSNCEKRVDRCSLQPCRNGGLCLDLGHALRCRCRAGFAGPRCEHDLNDCAGRACANGGTCVEGGGAHRCSCALGFGGRDCRERADPCAARPCAHGGRCYAHFSGLVCACAPGYMGARCEFPVHPDGVSALPAAPPGLRPGDPQRYP
notes: also called cyDLL3; not shown: human IgG1 Fc
Turning to B2, the binding result in [11], in test [14], in test [16], in test [17], in test [22] and in test [24] was “no binding (tested: 50 nM)” each time. Moreover, the binding result in [37], in test [40], in test [42] and in test [43] was “no binding (tested: 50 nM)” in each case. The Kd in [12] turned out to be 27.9 nM; in test [13], 17.5 nM; in test [15] it was 11.7 nM; in test [18], 6.8 nM; in test [19] it was 30.8 nM; in [20], 18.2 nM. For the same molecule, the Kd in [21] came out at 14.6 nM; in test [23], 10.7 nM; in [25] it was 86.2 nM; in [26] it was 16.4 nM; in [27] it was 5.9 nM; in test [28], 17.9 nM. Besides, the Kd turned out to be 5.6 nM in test [29]; 42.4 nM in test [30]; 7 nM in test [31]; 5.5 nM in [32]; 8.2 nM in [33]; 5.5 nM in test [34]. For the same molecule, the Kd is 25 nM in test [35]; 8 nM in test [36]; 9.6 nM in [38]; 11.3 nM in test [39]; 5.5 nM in [41]; 2.8 nM in test [44].
